Assay results: patent US20240425885
Where a chain is given by its changes, count along the chain named.

Tests used:
Experiment in all cases: cleavage_in_vitro
[1] = system: T1, OMNI-101 (metagenomic, unknown); details: TXTL; PAM NRRRNNNN
T1 sequence: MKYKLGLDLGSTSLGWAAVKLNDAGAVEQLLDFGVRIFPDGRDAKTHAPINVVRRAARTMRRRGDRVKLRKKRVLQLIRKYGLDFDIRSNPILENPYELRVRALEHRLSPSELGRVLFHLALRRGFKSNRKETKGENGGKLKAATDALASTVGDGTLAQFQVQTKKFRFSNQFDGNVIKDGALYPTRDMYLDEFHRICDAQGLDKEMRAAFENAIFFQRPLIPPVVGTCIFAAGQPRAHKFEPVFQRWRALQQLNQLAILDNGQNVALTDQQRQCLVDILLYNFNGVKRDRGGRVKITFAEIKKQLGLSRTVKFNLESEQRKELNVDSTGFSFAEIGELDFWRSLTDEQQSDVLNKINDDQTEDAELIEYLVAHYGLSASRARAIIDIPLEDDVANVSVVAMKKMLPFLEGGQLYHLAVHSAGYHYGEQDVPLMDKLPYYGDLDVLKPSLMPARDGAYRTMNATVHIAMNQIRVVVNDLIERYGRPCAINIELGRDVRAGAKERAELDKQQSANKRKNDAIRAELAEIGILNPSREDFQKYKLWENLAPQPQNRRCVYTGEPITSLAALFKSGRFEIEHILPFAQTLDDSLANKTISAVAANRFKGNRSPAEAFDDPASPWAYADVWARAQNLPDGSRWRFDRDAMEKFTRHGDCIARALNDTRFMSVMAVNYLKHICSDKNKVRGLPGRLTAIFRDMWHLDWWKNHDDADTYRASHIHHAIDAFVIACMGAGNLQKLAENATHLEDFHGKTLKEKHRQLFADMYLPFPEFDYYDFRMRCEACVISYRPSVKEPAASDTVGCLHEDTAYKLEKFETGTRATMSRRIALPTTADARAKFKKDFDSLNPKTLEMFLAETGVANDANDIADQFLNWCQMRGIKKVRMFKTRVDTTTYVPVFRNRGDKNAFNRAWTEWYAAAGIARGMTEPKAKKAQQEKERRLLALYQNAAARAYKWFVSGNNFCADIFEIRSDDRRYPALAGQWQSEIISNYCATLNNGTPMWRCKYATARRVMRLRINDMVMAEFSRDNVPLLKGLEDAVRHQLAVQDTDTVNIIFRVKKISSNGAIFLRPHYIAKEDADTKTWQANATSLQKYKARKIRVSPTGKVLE

[2] = system: T2, OMNI-104 (metagenomic, unknown); details: TXTL; PAM NRRRNYCN
T2 sequence: T1 sequence with T151A, Q1084K

[3] = system: T3, OMNI-105 (metagenomic, unknown); details: TXTL; PAM NRRRNNNN
T3 sequence: T1 sequence with T151A, T1080P

[4] = system: T4, OMNI-90 (metagenomic, unknown); details: TXTL, PAM NNATTGYN
T4 sequence: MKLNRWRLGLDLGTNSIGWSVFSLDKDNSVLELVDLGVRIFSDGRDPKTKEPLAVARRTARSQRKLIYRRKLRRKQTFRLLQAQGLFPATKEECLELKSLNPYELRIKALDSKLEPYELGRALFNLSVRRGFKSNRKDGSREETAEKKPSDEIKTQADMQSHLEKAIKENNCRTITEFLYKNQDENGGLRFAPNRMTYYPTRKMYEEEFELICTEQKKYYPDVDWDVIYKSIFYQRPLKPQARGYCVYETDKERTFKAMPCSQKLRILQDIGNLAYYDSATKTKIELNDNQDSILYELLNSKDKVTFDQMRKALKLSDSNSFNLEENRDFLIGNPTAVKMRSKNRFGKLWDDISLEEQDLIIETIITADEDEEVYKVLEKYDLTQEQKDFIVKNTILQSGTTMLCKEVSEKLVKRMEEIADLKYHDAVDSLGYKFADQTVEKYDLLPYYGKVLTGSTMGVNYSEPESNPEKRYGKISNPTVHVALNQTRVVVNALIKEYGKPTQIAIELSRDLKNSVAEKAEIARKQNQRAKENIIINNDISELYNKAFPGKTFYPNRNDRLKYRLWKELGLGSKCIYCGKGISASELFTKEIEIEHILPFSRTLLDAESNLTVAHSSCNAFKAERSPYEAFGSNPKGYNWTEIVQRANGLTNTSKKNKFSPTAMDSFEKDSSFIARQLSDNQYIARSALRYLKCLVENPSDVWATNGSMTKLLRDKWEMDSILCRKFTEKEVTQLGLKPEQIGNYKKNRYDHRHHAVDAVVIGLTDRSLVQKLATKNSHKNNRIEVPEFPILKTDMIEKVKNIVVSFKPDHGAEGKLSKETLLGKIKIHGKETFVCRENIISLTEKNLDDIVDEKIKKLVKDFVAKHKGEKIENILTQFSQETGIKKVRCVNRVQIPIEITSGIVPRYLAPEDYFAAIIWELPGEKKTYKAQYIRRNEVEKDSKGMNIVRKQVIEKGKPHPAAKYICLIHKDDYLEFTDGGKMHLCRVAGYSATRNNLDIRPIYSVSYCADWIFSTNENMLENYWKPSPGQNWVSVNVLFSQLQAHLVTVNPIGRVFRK

GGAAGAGCAGAGCCUUGGUCUCGUUGCACCUAGACACCGAAAGGUGUCUUUGUGUUAAUAAGAACCUUUCUUUGGAAAGGAGUUCACCAUUUACAAACAGGCACUUCGGUGUCUGUUUUUUU / GGAAGAGCAGAGCCTTGGTCTCNNNNNNNN / NNNNNNNNGAGACCAAGGCTCTGCTCTTCC [T2 sgRNA 14 V1 ; T2 protospacer + 8N PAM library (pbPOS T2)]
activity (1-depletion score) [1]: 0.97
activity (1-depletion score) [2]: 0.98
activity (1-depletion score) [3]: 0.94

GGAAGAGCAGAGCCUUGGUCUCGUUGCACCUAGACACCGAGAAAUCGGUGUCUUUGUGUUAAUAAGAACCUUUCUUUGGAAAGGAGUUCACCAUUUACAAACAGGCACUUCGGUGUCUGUUUUUU / GGAAGAGCAGAGCCTTGGTCTCNNNNNNNN / NNNNNNNNGAGACCAAGGCTCTGCTCTTCC [T2 sgRNA 13 V1 ; T2 protospacer + 8N PAM library (pbPOS T2)]
activity (1-depletion score) [1]: 0.98
activity (1-depletion score) [2]: 0.92
activity (1-depletion score) [3]: 1

GGAAGAGCAGAGCCUUGGUCUCGUUGCACCUAGACGAAAGUCUUUGUGUUAAUAAGAACCUUUCUUUGGAAAGGAGUUCACCAUUUACAAACAGGCACUUCGGUGUCUGUUUUUU / GGAAGAGCAGAGCCTTGGTCTCNNNNNNNN / NNNNNNNNGAGACCAAGGCTCTGCTCTTCC [T2 sgRNA 11 V1 ; T2 protospacer + 8N PAM library (pbPOS T2)]
activity (1-depletion score) [1]: 0.96
activity (1-depletion score) [2]: 1
activity (1-depletion score) [3]: 0.98

GGAAGAGCAGAGCCUUGGUCUCGUUGCAGGUUGACCGGGAAAGCGGUCAACCUGCUAACAAGGAAACCUUUAGUUUCCGCAAAAUGCUUUUAUAUUCGUUGAGAUUUUUGCGUGAAUAUAGAUAGCACACAAUGCAAAGGGAAAGCUACGGCUUUCCCCCUUUUUUUU / GGAAGAGCAGAGCCTTGGTCTCNNNNNNNN / NNNNNNNNGAGACCAAGGCTCTGCTCTTCC [T2 sgRNA 1 V1 ; T2 protospacer + 8N PAM library (pbPOS T2)]
activity (1-depletion score) [4]: 0.95

GGAAGAGCAGAGCCUUGGUCUCGUUGCAGGUUGACCGGGAAAGCGGUCAACCUGCUAACAAGGAAACCUUUAGUUUCCGCAAUAUGCUUUAAUAUUCGUUGAGAUUAUUGCGUGAAUAUAGAUAGCACACAAUGCAAAGGGAAAGCUACGGCUUUCCCCCUUUUUUUU / GGAAGAGCAGAGCCTTGGTCTCNNNNNNNN / NNNNNNNNGAGACCAAGGCTCTGCTCTTCC [T2 sgRNA 1 V2 ; T2 protospacer + 8N PAM library (pbPOS T2)]
activity (1-depletion score) [4]: 0.94

GGAAGAGCAGAGCCUUGGUCUCGUUGCAGGUUGACCGGGAAAGCGGUCAACCUGCUAACAAGGAAACCUUUAGUUUCCGCAAUAUGCUUUAAUAUUCGUUGAGAUUAUUGCGUGAAUAUAGAUAGCACACAAUGCUUUUU / GGAAGAGCAGAGCCTTGGTCTCNNNNNNNN / NNNNNNNNGAGACCAAGGCTCTGCTCTTCC [T2 sgRNA 1 V3 ; T2 protospacer + 8N PAM library (pbPOS T2)]
activity (1-depletion score) ([4]; terminal hairpin deleted): 0.95

GGAAGAGCAGAGCCUUGGUCUCGUUGCAGGUUGACCGGGAAAGCGGUCAACCUGCUAACAAGGAAACCUUUAGUUUCCGCAAUAUGCUUUAAUAUUCGUUGAGAUUAUUGCGUGAAUAUAGAUUUUU / GGAAGAGCAGAGCCTTGGTCTCNNNNNNNN / NNNNNNNNGAGACCAAGGCTCTGCTCTTCC [T2 sgRNA 1 V4 ; T2 protospacer + 8N PAM library (pbPOS T2)]
activity (1-depletion score) ([4]; two last hairpins deleted): 0.96
